Assay results: the supplement of paper PMC10126150
± gives the standard deviation of the averaged measurements.

Tested on: ATP
Experiment: switch fluorescence ratio, 500 uM ATP over buffer (Cy3 cluster intensity, sum of 5 cycles each) (fold (ratio)); higher = stronger signal-on switching upon ATP binding; sequences stand for … in TCGTCGGCAGCGTCAGATGTGTATAAGAGACAGTTTTTTTTTTTTTTTTTTTTTTTTT…TC
Conditions: aptamer strand: ATP DNA aptamer (quencher-CACCTGGGGGAGTATTGCGGAGGAAGG + anchor), 100 nM annealed; ATP concentration: 500 uM
Summary of the method: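 Imaging in selection buffer was followed by imaging after 15 min with 500 uM ATP at 22 °C, for Cy3-labelled switching-strand clusters annealed to 100 nM quencher-labelled ATP aptamer on a modified Illumina MiSeq flow-cell. Five of these buffer/ATP cycles ran, separated by NaOH stripping and re-annealing. The fluorescence ratio per cluster is summed target-cycle over summed buffer-cycle Cy3 intensity, averaged per switch-domain sequence; clusters outside 100-1000 RFU were removed.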
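Further: ATP exposure 15 min at 22 °C before imaging.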

Sequence	switch fluorescence ratio
CTTAGGAAAG	0.98833 ± 0.00059
GGGTCCATGC	1.01 ± 0.018
TCGGTGTGCA	0.985 ± 0.024
AATCATATTA	1.01 ± 0.049
AGCGTTTTCA	0.994 ± 0.04
ATTGATAGGG	1.03 ± 0.037
ACCCGTTGTT	1.01 ± 0.039
TGATTTACAA	1.05 ± 0.015
TCCGGGAGGG	1.02 ± 0.053
TTTAAAGTTT	0.99 ± 0.029
CGTAATTTTC	1.09 ± 0.083
TATATTGCGT	0.9711 ± 0.0073
GTGGGAATTA	0.996 ± 0.025
ATGGAGAACT	0.976 ± 0.024
TGGGTAATGG	1.01 ± 0.038
TTTAATATAT	1.02 ± 0.031
CTGTTCACGG	1.017 ± 0.0092
AATGTGCTAG	0.995 ± 0.021
CTGTGAGTTA	0.97 ± 0.038
GATAGGAAGG	0.964 ± 0.052
TTTTCGGATT	0.9845 ± 0.0054
GCTGTACGCT	0.9539 ± 0.0027
TTTTTTCATC	1.031 ± 0.0078
TTCGCCGGTT	1.02 ± 0.0021
GGGGAGGGAC	1.02 ± 0.053
CGCGAATATA	1 ± 0.019

Sequence	switch fluorescence ratio
GGTGGGGCTT	0.998 ± 0.025
GGGAATAGGG	1.01 ± 0.02
AAACGAATGG	0.981 ± 0.022
GGAATGGGGC	0.993 ± 0.052
CAGATGGGTA	0.971 ± 0.025
CGGTTTAAGC	0.994 ± 0.046
GAGATCTTGG	0.9824 ± 0.0045
ACGGTTTCTT	0.9771 ± 0.0039
TGGGAGTTGT	0.989 ± 0.011
TTAAAGGGCT	0.982 ± 0.044
GGGGACGAGC	0.999 ± 0.027
GGGTTGTATG	0.997 ± 0.038
TGGATGACGG	0.972 ± 0.13
AAAATGGGCC	0.963 ± 0.033
GCAGGAGCGG	0.998 ± 0.0094
CTGCATGTGC	2.14 ± 0.11
TATATAGCGC	0.983 ± 0.044
CGGTTGGTGG	1.01 ± 0.014
TTTTAGGGAA	1.03 ± 0.035
CAGGTAGGGG	0.9507 ± 0.0065
TGTAAGTGCG	0.9833 ± 0.0063
TGTTTTTAGC	1.0151 ± 0.00055
AGCAGAAGGA	1.02 ± 0.015
GGGGGAAATA	0.9815 ± 0.0055
CGTTTGGGGT	1.002 ± 0.0071
TCTTTTCTTT	1.04 ± 0.043

Sequence	switch fluorescence ratio
GGGTGAAGAA	0.967 ± 0.019
GATTGCAGAT	1.02 ± 0.034
ATTTGAATA	0.984 ± 0.022
CGATGCTACA	1.06 ± 0.048
GGAGATTTTT	0.977 ± 0.044
TGCGAGGGTT	1.01 ± 0.093
CGGCGGGGTG	1.04 ± 0.055
CCCGGTTTTT	1.06 ± 0.022
TTGGTTTCAT	1.009 ± 0.0094
GCATTGGTTC	1.02 ± 0.042
AGGTTCGATC	1.02 ± 0.043
CTATGGGTTT	1.024 ± 0.0032
TTGTCGGTTT	0.983 ± 0.014
TGGGGGCGGA	1.01 ± 0.032
TTTGAAAAGG	1.01 ± 0.039
GCTTACGTCA	1.05 ± 0.086
CTTCGGTTCT	1.02 ± 0.028
CTTATGACAG	0.988 ± 0.011
GACTTATGAG	1.01 ± 0.047
GGAGGGGATT	0.982 ± 0.03
AGTGTGCATG	1.03 ± 0.013
ATCTGCTTGA	0.974 ± 0.042
CGACATTGCA	1.09 ± 0.022
ATCATGGGTA	0.9757 ± 0.0069
CGGTGGACTA	1.008 ± 0.01
TATTAACGAG	0.995 ± 0.032

Sequence	switch fluorescence ratio
AGGAGTCGGT	1.01 ± 0.012
ACGGCTGCGG	0.987 ± 0.035
TAATGGGTAA	1.01 ± 0.065
CGATTCGGGG	1.01 ± 0.03
AACGGGACCT	1.33 ± 0.081
TTTTACGGAT	1.01 ± 0.012
TGGATTTGGG	0.9969 ± 0.0066
GAAGGCCCGG	0.99 ± 0.062
AACGAGTGTG	1.01 ± 0.052
GGCATTTTTG	1.03 ± 0.015
GATTTATGAG	0.9668 ± 0.0067
TTACCCTTAG	1.06 ± 0.028
GGGTTGGCTA	0.964 ± 0.047
GATCGGTACG	1 ± 0.011
ATGTGTTAGC	0.999 ± 0.058
TCGCAGGGGG	0.992 ± 0.043
GAGGGCGTAA	1.06 ± 0.035
TATCCGACAT	1.15 ± 0.039
AAGTTTGAGT	0.982 ± 0.022
GCCGTTTTTT	0.97 ± 0.04
TTATCGTCGG	0.978 ± 0.04
TTCGATGGAA	1.06 ± 0.0038
GCCTATGAGG	0.993 ± 0.038
ACATTGAGGG	1.057 ± 0.0028
CCTGGGTAGC	1.1 ± 0.045
TTTGTACGGG	0.999 ± 0.036

Sequence	switch fluorescence ratio
CTTTACTAGG	1.016 ± 0.0052
CATGTATTGA	0.964 ± 0.024
GCCTGAACTT	1.03 ± 0.006
AAGTTTGATA	0.981 ± 0.058
ATTTTCAACT	1.03 ± 0.018
TTTTAGTACC	1.018 ± 0.0081
TTGTGACAGT	1.01 ± 0.024
GTGCTCTTAC	1.11 ± 0.014
CGCACGGTAG	1.05 ± 0.032
GTGTAGAAAT	0.9834 ± 0.0068
GGCCCAGGGA	1.18 ± 0.18
GTGGGTTTGG	0.999 ± 0.049
TTACGGCCTT	1.06 ± 0.012
TGGTTGACGA	1.01 ± 0.14
ATGGGGGCTA	0.979 ± 0.068
TGGGAGGATT	1 ± 0.027
AATCCATGGC	0.98678 ± 6.8e-05
CTTTTAGGGG	1.01 ± 0.012
AGATTAATTG	0.994 ± 0.008
TAAAGCGGTG	0.992 ± 0.027
ACGTAGGGGG	0.988 ± 0.032
TTAAGATAGT	1.02 ± 0.028
CTTGGGGATG	0.997 ± 0.042
TAGGGGAAGA	1.003 ± 0.0076
GCTTGTGCAT	0.989 ± 0.028
TCTAATCCGG	1.015 ± 0.0051

Sequence	switch fluorescence ratio
TTTTATGACC	1.008 ± 0.0066
TTCGTGTCCC	0.994 ± 0.019
TACGAATGGG	1.01 ± 0.037
GGCCCAGGAT	1.07 ± 0.094
TATTTGGGAC	1.02 ± 0.025
GAGCGGGGGT	1.01 ± 0.013
CGTGCGGGGG	1.01 ± 0.035
GAAGGGCGCG	1.029 ± 0.0034
GAGGGGGTTT	0.99 ± 0.018
AATACTGAGC	1.04 ± 0.053
TGTCTCTGTC	1.01 ± 0.021
AGGTCCGGAA	1.14 ± 0.017
CCTTGAAAGG	1 ± 0.011
TGAGTGAGGT	0.959 ± 0.016
TTTTGGCTGT	1.09 ± 0.25
CGGGTTGAG	0.9967 ± 0.0066
GATGTTGAAT	0.998 ± 0.021
GCTCTCATAT	1.027 ± 0.0086
TTTTATGCCC	0.9772 ± 0.0032
GCTAGAAGTA	1.02 ± 0.049
TAGTGGGGAC	0.9677 ± 0.0027
TTGCGTAGGC	0.994 ± 0.034
TTCCGGAAGT	1.04 ± 0.04
